Laboratory results from patent US20240116985A1 (published 2024).
Starred links: 1 amine or outer side, 2 acyl side, 3 side chain; linkers in the order of their positions; H or OH if unused. Positions of bridges follow the written chain, without caps; N, C: chain ends. Non-standard residues stand in square brackets, D forms with d. Primed or numbered codes have the meaning given here. (Pfbn)GA = (S)-2-amino-3-((carboxymethyl)((perfluorophenyl)methyl)amino)propanoic acid, O=C([C@H](CN(CC(=O)[*:3])Cc1c(F)c(F)c(F)c(F)c1F)N[*:1])[*:2]; B5(16) = 2-amino-2-(pent-4-en-1-yl)hept-6-enoic acid = 2,2-bis(4-pentenyl)glycine (stitching residue), C=CCCCC(CCCC=C)(N[*:1])C(=O)[*:2]; PyrS2 = (S)-3-amino-1-((pent-4-en-1-yloxy)carbonyl)pyrrolidine-3-carboxylic acid, C=CCCCOC(=O)N1CC[C@@](N[*:1])(C(=O)[*:2])C1; B5(9) = 2-amino-2-(pent-4-en-1-yl)hept-6-enoic acid (2,2-bis(4-pentenyl)glycine), C=CCCCC(CCCC=C)(N[*:1])C(=O)[*:2]; Bta = N[C@@H](Cc1csc2ccccc12)C(=O)O; αAllylPro = C=CC[C@@]1(C(=O)O)CCCN1; tBuAla = CC(C)(C)C[C@H](N)C(=O)O; 3Thi = N[C@@H](Cc1ccsc1)C(=O)O; S8 = C=CCCCCCC[C@](C)(N)C(=O)O; PyrS2(4) = not defined here

T1: B-cat-Halo (UniProt P35222 1-781)
T1 sequence (looked up): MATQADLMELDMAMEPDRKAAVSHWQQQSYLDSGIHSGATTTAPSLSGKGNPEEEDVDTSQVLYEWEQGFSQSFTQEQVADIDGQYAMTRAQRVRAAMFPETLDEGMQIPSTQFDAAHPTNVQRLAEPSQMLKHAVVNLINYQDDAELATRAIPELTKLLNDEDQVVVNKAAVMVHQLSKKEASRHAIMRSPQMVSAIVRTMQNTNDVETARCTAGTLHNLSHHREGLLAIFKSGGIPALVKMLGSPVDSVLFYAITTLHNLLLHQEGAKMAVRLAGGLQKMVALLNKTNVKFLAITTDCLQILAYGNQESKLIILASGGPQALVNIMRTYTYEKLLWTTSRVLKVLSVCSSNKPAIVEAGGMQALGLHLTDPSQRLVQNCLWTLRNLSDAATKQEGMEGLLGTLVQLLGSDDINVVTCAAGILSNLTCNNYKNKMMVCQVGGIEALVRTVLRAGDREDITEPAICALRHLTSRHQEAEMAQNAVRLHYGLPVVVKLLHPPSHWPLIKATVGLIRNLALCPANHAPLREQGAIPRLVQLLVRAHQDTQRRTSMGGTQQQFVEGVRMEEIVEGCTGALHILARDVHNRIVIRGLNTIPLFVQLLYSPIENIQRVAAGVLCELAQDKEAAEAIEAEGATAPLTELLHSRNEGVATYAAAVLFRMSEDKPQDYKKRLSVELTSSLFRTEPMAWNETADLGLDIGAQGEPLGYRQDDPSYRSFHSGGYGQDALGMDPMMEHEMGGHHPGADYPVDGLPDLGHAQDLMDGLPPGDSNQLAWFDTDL

T2: full-length beta-Catenin (Uniprot ID P35222) (Homo sapiens (Human), UniProt P35222 1-781)
T2 construct: Said to be full-length in the fluorescence polarization assay; also called bCat; B-Catenin
T2 sequence: T1 sequence (looked up)

B1: I-1637 (peptide)
peptide: Ac-[αAllylPro]D[tBuAla][B5(16)]D[(Me)GA]AAFN[PyrS2(4)][3Thi][Bta]Q-NH2
modifications: staple 1-4, 4-11; not fully specified; printed as Ac-PL3-Asp-Npg-B5-Asp-[Me]GA-Ala-Ala-Phe-Asn-PyrS2-3Thi-BztA-Gln-NH2; reading uncertain
B2: I-1638 (peptide)
peptide: Ac-[αAllylPro]D[tBuAla][B5(16)]D[(Pfbn)GA]AAFN[PyrS2][3Thi][Bta]Q-NH2
modifications: staple 1-4, 4-11
B3: I-613 (peptide)
peptide: XDIXDRAAFQXFXQ
modifications: not fully specified; Ac-PL3-Asp-Ile-B5-Asp-Arg-Ala-Ala-Phe-Gln-S8-Phe-BztA-Gln-NH2; N-terminal acetyl, C-terminal amide; non-natural PL3 (1), B5 (4), S8 (11), BztA (13); staples PL3-B5 and B5-S8 by olefin metathesis
notes: Stapled peptide; Earlier-eluting staple isomer composition
B4: I-614 (peptide)
peptide: XDIXDRAAFQXFXQ
modifications: not fully specified; Ac-PL3-Asp-Ile-B5-Asp-Arg-Ala-Ala-Phe-Gln-S8-Phe-BztA-Gln-NH2; N-terminal acetyl, C-terminal amide; non-natural PL3 (1), B5 (4), S8 (11), BztA (13); staples PL3-B5 and B5-S8 by olefin metathesis
notes: Stapled peptide; Later-eluting staple isomer composition
B5: I-617 (peptide)
peptide: XDLXDEAAFTXFXH
modifications: not fully specified; Ac-PL3-Asp-Leu-B5-Asp-Glu-Ala-Ala-Phe-Thr-S8-Phe-BztA-His-NH2; N-terminal acetyl, C-terminal amide; non-natural PL3 (1), B5 (4), S8 (11), BztA (13); staples PL3-B5 and B5-S8 by olefin metathesis
notes: as for B3
B6: I-622 (peptide)
peptide: XDLXDEAAFTXFXQ
modifications: not fully specified; Ac-PL3-Asp-Leu-B5-Asp-Glu-Ala-Ala-Phe-Thr-S8-Phe-BztA-Gln-NH2; N-terminal acetyl, C-terminal amide; non-natural PL3 (1), B5 (4), S8 (11), BztA (13); staples PL3-B5 and B5-S8 by olefin metathesis
notes: as for B3
B7: I-623 (peptide)
peptide: XDLXDEAAFTXFXQ
modifications: not fully specified; Ac-PL3-Asp-Leu-B5-Asp-Glu-Ala-Ala-Phe-Thr-S8-Phe-BztA-Gln-NH2; N-terminal acetyl, C-terminal amide; non-natural PL3 (1), B5 (4), S8 (11), BztA (13); staples PL3-B5 and B5-S8 by olefin metathesis
notes: as for B4
B8: I-618 (peptide)
peptide: XDLXDEAAFTXFXH
modifications: not fully specified; Ac-PL3-Asp-Leu-B5-Asp-Glu-Ala-Ala-Phe-Thr-S8-Phe-BztA-His-NH2; N-terminal acetyl, C-terminal amide; non-natural PL3 (1), B5 (4), S8 (11), BztA (13); staples PL3-B5 and B5-S8 by olefin metathesis
notes: as for B4
B9: I-637 (peptide)
peptide: XDIXDEAAFQXFXP
modifications: not fully specified; Ac-PL3-Asp-Ile-B5-Asp-Glu-Ala-Ala-Phe-Gln-S8-Phe-BztA-Pro-NH2; N-terminal acetyl, C-terminal amide; non-natural PL3 (1), B5 (4), S8 (11), BztA (13); staples PL3-B5 and B5-S8 by olefin metathesis
notes: as for B3
B10: I-633 (peptide)
peptide: Ac-[αAllylPro]DI[B5(16)]DEAAFQ[S8]F[Bta]R-NH2
modifications: staple 1-4, 4-11
notes: Stapled peptide
B11: I-634 (peptide)
peptide: Ac-[αAllylPro]DI[B5(16)]DEAAFQ[S8]F[Bta]L-NH2
modifications: staple 1-4, 4-11
notes: Stapled peptide
B12: I-635 (peptide)
peptide: Ac-[αAllylPro]DI[B5(16)]DEAAFQ[S8]F[Bta]F-NH2
modifications: staple 1-4, 4-11
notes: Stapled peptide
B13: I-636 (peptide)
peptide: Ac-[αAllylPro]DI[B5(16)]DEAAFQ[S8]F[Bta]Y-NH2
modifications: staple 1-4, 4-11
notes: Stapled peptide
B14: I-639 (peptide)
peptide: XDIXDEAAFQXFXS
modifications: not fully specified; Ac-PL3-Asp-Ile-B5-Asp-Glu-Ala-Ala-Phe-Gln-S8-Phe-BztA-Ser-NH2; N-terminal acetyl, C-terminal amide; non-natural PL3 (1), B5 (4), S8 (11), BztA (13); staples PL3-B5 and B5-S8 by olefin metathesis
notes: as for B3
B15: I-640 (peptide)
peptide: XDIXDEAAFQXFXS
modifications: not fully specified; Ac-PL3-Asp-Ile-B5-Asp-Glu-Ala-Ala-Phe-Gln-S8-Phe-BztA-Ser-NH2; N-terminal acetyl, C-terminal amide; non-natural PL3 (1), B5 (4), S8 (11), BztA (13); staples PL3-B5 and B5-S8 by olefin metathesis
notes: as for B4
B16: I-641 (peptide)
peptide: XDIXDEAAFQXFXT
modifications: not fully specified; Ac-PL3-Asp-Ile-B5-Asp-Glu-Ala-Ala-Phe-Gln-S8-Phe-BztA-Thr-NH2; N-terminal acetyl, C-terminal amide; non-natural PL3 (1), B5 (4), S8 (11), BztA (13); staples PL3-B5 and B5-S8 by olefin metathesis
notes: as for B3
B17: I-642 (peptide)
peptide: XDIXDEAAFQXFXT
modifications: not fully specified; Ac-PL3-Asp-Ile-B5-Asp-Glu-Ala-Ala-Phe-Gln-S8-Phe-BztA-Thr-NH2; N-terminal acetyl, C-terminal amide; non-natural PL3 (1), B5 (4), S8 (11), BztA (13); staples PL3-B5 and B5-S8 by olefin metathesis
notes: as for B4
B18: I-643 (peptide)
peptide: Ac-[αAllylPro]DI[B5(9)]DEAAFQ[S8]F[Bta]W-NH2
modifications: staple 1-4, 4-11
notes: as for B3
B19: I-644 (peptide)
peptide: Ac-[αAllylPro]DI[B5(9)]DEAAFQ[S8]F[Bta]W-NH2
modifications: staple 1-4, 4-11
notes: as for B4
B20: I-638 (peptide)
peptide: XDIXDEAAFQXFXP
modifications: not fully specified; Ac-PL3-Asp-Ile-B5-Asp-Glu-Ala-Ala-Phe-Gln-S8-Phe-BztA-Pro-NH2; N-terminal acetyl, C-terminal amide; non-natural PL3 (1), B5 (4), S8 (11), BztA (13); staples PL3-B5 and B5-S8 by olefin metathesis
notes: as for B4

biological target: T1, B-cat-Halo; test: cell-based or functional assay

Question: B1 was tested. Which “NanoBRET Abs IC50” value did it give?
Answer: > 20000 nM

Question: With B2 as the binder, how does the “NanoBRET Abs IC50” value read?
Answer: 14500 nM

biological target: T2, full-length beta-Catenin (Uniprot ID …); test: fluorescence polarization competition; peptide titrated against 10 nM full-length beta-catenin + 10 nM 5FAM-TCF4(10-53) probe
Method: The plate was incubated protected from light for 60 minutes at 20° C. prior to read. Reads were performed on a CLARIOstar plate reader (BMG Labtech) in duplicate, and data were fitted to a 1:1 binding model with hill slope using an in-house script. All provided concentrations are final concentrations.

Question: B3 was tested. Which EC50 did it give?
Answer: 1630 nM

Question: B4 was tested. Which EC50 did it give?
Answer: 1140 nM

Question: How did the EC50 turn out when B5 was run?
Answer: 253 nM

Question: How did the EC50 turn out when B6 was run?
Answer: 230 nM

Question: Which EC50 does the source give for B7 here?
Answer: 103 nM

Question: How did the EC50 turn out when B8 was run?
Answer: 135 nM

Question: For B9, which EC50 is on record?
Answer: 5000 nM

Question: B10 was tested. Which EC50 did it give?
Answer: 88 nM

Question: How did the EC50 turn out when B11 was run?
Answer: 425 nM

Question: With B12 as the binder, how does the EC50 read?
Answer: 171 nM

Question: Which EC50 does the source give for B13 here?
Answer: 198 nM

Question: B14 was tested. Which EC50 did it give?
Answer: 109 nM

Question: For B15, which EC50 is on record?
Answer: 87 nM

Question: How did the EC50 turn out when B16 was run?
Answer: 122 nM

Question: With B17 as the binder, how does the EC50 read?
Answer: 118 nM

Question: How did the EC50 turn out when B18 was run?
Answer: 958 nM

Question: B19 was tested. Which EC50 did it give?
Answer: 808 nM

Question: With B20 as the binder, how does the EC50 read?
Answer: 3880 nM
